Legend:
[1] = molecular target: human MUC1 on the surface of MUC1 expressing tumor cells (human) (UniProt P15941); assay: flow cytometry, FITC-conjugated antibody, Raji cells; cell looks truncated
[2] = molecular target: human MUC1 on the surface of MUC1 expressing tumor cells (human) (UniProt P15941); assay: flow cytometry, FITC-conjugated antibody, MDA-231 cells; cell looks truncated
[3] = molecular target: human MUC1 on the surface of MUC1 expressing tumor cells (human) (UniProt P15941); assay: flow cytometry, FITC-conjugated antibody, MCF7 cells; cell looks truncated
[4] = molecular target: human MUC1 on the surface of MUC1 expressing tumor cells (human) (UniProt P15941); assay: flow cytometry, FITC-conjugated antibody, U266 cells; cell looks truncated
[5] = molecular target: human MUC1 on the surface of MUC1 expressing tumor cells (human) (UniProt P15941); assay: flow cytometry, FITC-conjugated antibody, ARH-77 cells; cell looks truncated
[6] = molecular target: human MUC1 on the surface of MUC1 expressing tumor cells (human) (UniProt P15941); assay: FACS, bone marrow aspirate of MM patient P #II
[7] = molecular target: human MUC1 on the surface of MUC1 expressing tumor cells (human) (UniProt P15941); assay: FACS, bone marrow aspirate of MM patient P #I
[8] = molecular target: human MUC1 on the surface of MUC1 expressing tumor cells (human) (UniProt P15941); assay: flow cytometry, FITC-conjugated antibody, OVCAR-3 cells; cell looks truncated
[9] = molecular target: human MUC1 on the surface of MUC1 expressing tumor cells (human) (UniProt P15941); assay: FACS, bone marrow aspirate of MM patient P #3
[10] = molecular target: human MUC1 on the surface of MUC1 expressing tumor cells (human) (UniProt P15941); assay: flow cytometry, FITC-conjugated antibody, MDA-453 cells; cell looks truncated
[11] = molecular target: human MUC1 on the surface of MUC1 expressing tumor cells (human) (UniProt P15941); assay: flow cytometry, FITC-conjugated antibody, RPMI8226 cells; cell looks truncated
[12] = molecular target: human MUC1 on the surface of MUC1 expressing tumor cells (human) (UniProt P15941); assay: flow cytometry, FITC-conjugated antibody, U266 cells; negative control
[13] = molecular target: human MUC1 on the surface of MUC1 expressing tumor cells (human) (UniProt P15941); assay: flow cytometry, FITC-conjugated antibody, Raji cells; negative control
[14] = molecular target: human MUC1 on the surface of MUC1 expressing tumor cells (human) (UniProt P15941); assay: flow cytometry, FITC-conjugated antibody, MDA-231 cells; negative control
[15] = molecular target: human MUC1 on the surface of MUC1 expressing tumor cells (human) (UniProt P15941); assay: flow cytometry, FITC-conjugated antibody, MCF7 cells; negative control
[16] = molecular target: human MUC1 on the surface of MUC1 expressing tumor cells (human) (UniProt P15941); assay: flow cytometry, FITC-conjugated antibody, OVCAR-3 cells; negative control
[17] = molecular target: human MUC1 on the surface of MUC1 expressing tumor cells (human) (UniProt P15941); assay: flow cytometry, FITC-conjugated antibody, RPMI8226 cells; negative control
[18] = molecular target: human MUC1 on the surface of MUC1 expressing tumor cells (human) (UniProt P15941); assay: flow cytometry, FITC-conjugated antibody, MDA-453 cells; negative control
[19] = molecular target: human MUC1 on the surface of MUC1 expressing tumor cells (human) (UniProt P15941); assay: flow cytometry, FITC-conjugated antibody, ARH-77 cells; negative control
[20] = molecular target: human MUC1 on the surface of MUC1 expressing tumor cells (human) (UniProt P15941); assay: flow cytometry, FITC-conjugated antibody, Ramos cells; negative control

Chain of UniProt P15941 (P15941 24-1255): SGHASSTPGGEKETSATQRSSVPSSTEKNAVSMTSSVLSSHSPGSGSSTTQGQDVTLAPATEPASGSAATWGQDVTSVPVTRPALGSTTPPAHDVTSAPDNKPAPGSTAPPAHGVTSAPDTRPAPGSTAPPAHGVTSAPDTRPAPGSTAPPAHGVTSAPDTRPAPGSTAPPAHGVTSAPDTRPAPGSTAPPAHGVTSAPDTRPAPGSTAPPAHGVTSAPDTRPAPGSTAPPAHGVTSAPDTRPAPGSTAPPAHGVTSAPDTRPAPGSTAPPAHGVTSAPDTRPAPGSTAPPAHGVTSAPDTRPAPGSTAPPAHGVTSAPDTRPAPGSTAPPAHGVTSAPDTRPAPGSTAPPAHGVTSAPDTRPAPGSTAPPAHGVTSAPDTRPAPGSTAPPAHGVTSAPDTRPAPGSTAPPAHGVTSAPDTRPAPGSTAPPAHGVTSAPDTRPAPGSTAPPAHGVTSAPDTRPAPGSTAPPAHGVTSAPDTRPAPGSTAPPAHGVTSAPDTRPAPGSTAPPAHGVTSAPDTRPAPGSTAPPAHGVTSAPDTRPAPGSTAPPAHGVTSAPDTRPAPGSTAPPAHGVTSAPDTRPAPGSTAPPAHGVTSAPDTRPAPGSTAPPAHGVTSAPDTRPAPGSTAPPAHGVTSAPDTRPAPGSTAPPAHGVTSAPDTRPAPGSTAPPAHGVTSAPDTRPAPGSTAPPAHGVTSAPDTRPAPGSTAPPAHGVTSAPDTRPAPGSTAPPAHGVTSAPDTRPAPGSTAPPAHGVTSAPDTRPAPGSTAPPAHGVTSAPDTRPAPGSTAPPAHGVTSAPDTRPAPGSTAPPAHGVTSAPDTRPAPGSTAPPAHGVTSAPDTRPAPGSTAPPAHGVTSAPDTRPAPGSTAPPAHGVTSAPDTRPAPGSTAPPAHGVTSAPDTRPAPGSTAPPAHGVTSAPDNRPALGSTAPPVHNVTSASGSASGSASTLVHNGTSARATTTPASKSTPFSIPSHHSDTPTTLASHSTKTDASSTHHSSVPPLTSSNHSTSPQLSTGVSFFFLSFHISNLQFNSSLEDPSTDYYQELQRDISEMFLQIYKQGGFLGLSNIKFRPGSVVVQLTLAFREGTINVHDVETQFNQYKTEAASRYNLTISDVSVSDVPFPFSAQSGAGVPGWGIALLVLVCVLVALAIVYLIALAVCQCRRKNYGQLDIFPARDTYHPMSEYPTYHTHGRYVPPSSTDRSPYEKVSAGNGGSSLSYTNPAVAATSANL

| geometric mean (FACS) [1] | geometric mean (FACS) [2] | geometric mean (FACS) [3] | geometric mean (FACS) [4] | geometric mean (FACS) [5] | % of CD138 positive cells immunoreactive [6] | % of CD138 positive cells immunoreactive [7] | geometric mean (FACS) [8] | % of cells immunoreactive [9] | geometric mean (FACS) [10] | geometric mean (FACS) [11] | geometric mean (FACS) [12] | geometric mean (FACS) [13] | geometric mean (FACS) [14] | geometric mean (FACS) [15] | geometric mean (FACS) [16] | geometric mean (FACS) [17] | geometric mean (FACS) [18] | geometric mean (FACS) [19] | geometric mean (FACS) [20] | Substance |
| --- | --- | --- | --- | --- | --- | --- | --- | --- | --- | --- | --- | --- | --- | --- | --- | --- | --- | --- | --- | --- |
| 3 | 66 | 4 | 39 | 68 | 59.2% | 78.3% | 456 | 0.37% | 80 | 585 |  |  |  |  |  |  |  |  |  | H23 anti-MUC1 TRA monoclonal antibody |
|  |  |  |  |  |  |  |  |  |  |  | 485 | 131 | 245 | 230 | 370 | 745 | 182 | 176 | 198 | Mouse control (species-specific isotype control, FITC conjugated) (antibody) |
|  |  |  |  |  |  |  |  |  |  |  | 471 | 128 | 215 | 236 | 418 | 738 | 165 | 161 | 111 | Rabbit control (species-specific isotype control, FITC conjugated) (antibody) |

Source: patent publication US20200062842A1
